Results taken from publication PMC3102659.

What was measured:
[1] = molecular target: TTAT mutant fiber of HAdV5 (KKTK motif of the shaft mutated) (human adenovirus serotype 5) (UniProt P11818); experiment: not stated; data not shown: folding of TTAT mutant fibers as trimers
[2] = molecular target: human blood coagulation factor X (FX) (human)
[3] = molecular target: immobilized HS (hypersulfated heparin), bridged by FX (m1); experiment: SPR; details: virion + FX at 8 µg/ml (FXmax); HS immobilized on chip; read at end of injection (~285 s); parent: est. 2900; read off a plot
[4] = molecular target: human blood coagulation factor X (FX) (human); remark: listed apart in the source
[5] = molecular target: human blood coagulation factor X (FX) (human); experiment: SPR; biotinylated hypersulfated heparin (HS) on a streptavidin CM4 chip, BIAcore3000; hexon or virions injected alone or mixed with FX or FXGL; read-out is the FX-bridged binding to HS; HBS (10 mM HEPES, 150 mM NaCl, pH 7.4) with 3 mM CaCl2, 5 µl/min

Substance	cell-bound virions on CHO-K1 cells (qPCR of viral genomes), MOI 5,000, 1 h at 4°C, increase with FX 8 µg/ml over no FX [2] [fold]	response [3] [RU]	also measured
TTAT mutant fiber of HAdV5 (KKTK motif of the shaft mutated) (from UniProt P11818 1-581) (natural protein)			stoichiometry N [1]: 3
HAdV5wt virion (replication-deficient HAdV5 vector with nonmodified capsid) (from UniProt P04133 1-952; P12538 1-571; P11818 1-581) (complex)	5 to 6		
HAdV5wt virion (replication-deficient HAdV5 vector with nonmodified capsid) (from UniProt P04133;P12538;P11818) penton base:R340E		2500	
HAdV5wt virion (replication-deficient HAdV5 vector with nonmodified capsid) (from UniProt P04133;P12538;P11818) fiber:K91T; fiber:K92T; fiber:T93A; fiber:K94T		2400	
HAdV5F^TTAT virion (HAdV5 vector mutated in the KKTK motif of the fiber shaft) (from UniProt P04133 1-952; P12538 1-571; P11818 1-581) (complex)			enhancement of transduction efficiency of CHO-K1 cells, MOI 2,500, increasing doses of FX up to FXmax (8 µg/ml) [4]: 65 fold
HAdV5F35 virion (serotype 35 fiber-pseudotyped HAdV5 vector) (from UniProt P04133 1-952; P12538 1-571) (complex)	10		copies of FX per virion at maximum FX-mediated binding to HS (copies of FX per virion) [5]: 480
